Experimental data as given in patent publication US8597922B2, “Methods and compositions for producing olefins” (LS9, Inc., priority 2007, dated 2013).

Key:
[1] = system: E. coli MG1655 ΔfadD; experiment: α-Olefins from glucose by expression of orf880 in E. coli MG1655 ΔfadD; type: cell-based; conditions: glucose (1%, w/v) only carbon source, versus vector-only control
Description: The genomic DNA encoding ATCC 8456_orf880, which was codon-optimized for expression in E. coli (SEQ ID NO:4), was cloned into vector OP80 (pCL1920 derivative) under the control of the Ptrc promoter, and E. coli MG1655 ΔfadD was transformed with the resulting vector. The E. coli cells were grown at 37° C. in M9 mineral medium supplemented with 20 μg/mL uracil and 100 μg/mL spectinomycin. Glucose (1%, w/v) was the only source of carbon and energy. When the culture reached an OD600 of 0.8 to 1.0, IPTG (1 mM) and 0.5 mM delta-aminolaevulinic acid (heme biosynthesis precursor) were added. The temperature was shifted to 25° C. After growth for an additional 18 to 24 h at 25° C., the cells from 10 mL of culture were pelleted, resuspended in 1 mL methanol, sonicated for 30 min, and extracted with 4 mL hexane. After solvent evaporation, the samples were resuspended in 0.1 mL hexane and analyzed by GC-MS.

[2] = Specific activity of α-olefin and α/β-hydroxy fatty acid formation by purified enzymes; type: biochemical; conditions: 500 μM H2O2, 200 μM potassium hexadecanoate
Description: The specific activity of α-olefin formation as well as α-(2) and β-(3)hydroxy fatty acid formation were determined for ORF880, CYP152A1, and CYP152A1 Q85H (see Examples 12 and 16). An E. coli BL21 strain (DE3) (Invitrogen) was transformed with either pET15b-orf 880, pET15b-cyp152A1, and pET15b-cyp152A1 Q85H using routine chemical transformation techniques. Protein expression was carried out by first inoculating a colony of the E. coli strain in 5 mL of LB media supplemented with 100 mg/L of carbenicillin and shaken overnight at 37° C. to produce a starter culture. This starter culture was used to inoculate 0.5 L of LB media supplemented with 100 mg/L of carbenicillin. The culture was shaken at 37° C. until an OD600 value of 0.6 was reached. The culture was placed on ice for 10 min before IPTG was added to a final concentration of 250 μM. The culture was shaken at 25° C. for approximately 18 h, and then centrifuged at 3,700 rpm for 20 min at 4° C. The pellet was then resuspended in 10 mL of buffer containing 100 mM sodium phosphate buffer at pH 7.2 supplemented with Bacterial ProteaseArrest (GBiosciences). The cells were then sonicated at 12 W on ice for 9 sec with 1.5 sec of sonication followed by 1.5 sec of rest. This procedure was repeated 5 times with one min intervals between each sonication cycle. The cell free extract was centrifuged at 10,000 rpm for 30 min at 4° C. 5 mL of Ni-NTA (Qiagen) was added to the supernatant, and the mixture was gently stirred at 4° C. The slurry was passed over a column removing the resin from the lysate. The resin was then washed with 30 mL of buffer containing 100 mM sodium phosphate buffer at pH 7.2 plus 30 mM imidazole. Finally, the protein was eluted with 15 mL of 100 mM sodium phosphate buffer at pH 7.2 plus 250 mM imidazole. The protein solution was dialyzed with 200 volumes of 100 mM sodium phosphate buffer at pH 7.2 with 20% glycerol. Protein concentration was determined using the Bradford assay (Biorad). 578 μg/mL of ORF880, 865 μg/mL of CYP152A1, and 653 μg/mL of CYP152A1 Q85H protein was obtained.
To determine the specific activity with potassium hexadecanoate, the following reactions were set-up where each time point consisted of 500 μL. Each reaction contained of 500 μM H2O2, 200 μM of potassium hexadecanoate, 100 mM sodium phosphate buffer at pH 7.2, and protein at the following concentrations: ORF880-0.23 or 0.46 μM; CYP152A1-8.65, 17.3, or 34.6 μM; CYP152A1 Q85H-6.53, 13.06, or 26.12 μM. The reactions were carried out at room temperature and time points were taken at 0, 1, 3, 5, 7, 10, 14, and 20 minutes. Reactions were quenched with 50 μL of 12 M HCl and then extracted with 200 μL of ethyl acetate. 50 μL of this extract was then reacted with 50 μL N,O-Bis(trimethylsilyl)trifluoroacetamide with trimethyl-chlorosilane (Aldrich). Samples were analyzed using GC/MS using the following parameters: run time: 20 min; column: HP-5-MS Part No. 190915-433E (length of 30 meters; I.D.: 0.25 mm narrowbore; film: 0.25 μM); inject: 1 μL Agilent 6850 inlet; inlet: 300° C. splitless; carrier gas: helium; flow: 1.3 mL/min; oven temp: 100° C. hold 5 min, 320° C. at 20° C./min, 320° C. hold 5 min; det: Agilent 5975B VL MSD; det. temp: 300° C.; scan: 50-500 M/Z. Calibration curves were generated using 1-pentadecene, α(2)-hydroxyhexadecanoic acid, and β(3)-hydroxyhexadecanoic acid dissolved in ethyl acetate and derivatized as described herein.
Based upon this analysis, product formation was determined to be linear within the first three minutes. The specific activities for each enzyme concentration in the linear range were averaged for a given reaction (e.g., decarboxylation, α-hydroxylation, or β-hydroxylation). FIG. 21 summarizes the results. The specific activity for 1-pentadecene formation was similar for ORF880 and CYP152A1. Mutating the glutamine 85 residue to a histidine increased the specific activity of 1-pentadecene formation (i.e., increased fatty acid decarboxylase activity). […]

B1: ORF880: olefin-producing enzyme (fatty acid decarboxylase) from Jeotgalicoccus sp. ATCC 8456, SEQ ID NO:2 (protein)
chain: MATLKRDKGLDNTLKVLKQGYLYTTNQRNRLNTSVFQTKALGGKPFVVVTGKEGAEMFYNNDVVQREGMLPKRIVNTLFGKGAIHTVDGKKHVDRKALFMSLMTEGNLNYVRELTRTLWHANTQRMESMDEVNIYRESIVLLTKVGTRWAGVQAPPEDIERIATDMDIMIDSFRALGGAFKGYKASKEARRRVEDWLEEQIIETRKGNIHPPEGTALYEFAHWEDYLGNPMDSRTCAIDLMNTFRPLIAINRFVSFGLHAMNENPITREKIKSEPDYAYKFAQEVRRYYPFVPFLPGKAKVDIDFQGVTIPAGVGLALDVYGTTHDESLWDDPNEFRPERFETWDGSPFDLIPQGGGDYWTNHRCAGEWITVIIMEETMKYFAEKITYDVPEQDLEVDLNSIPGYVKSGFVIKNVREVVDRT
modifications: Jeotgalicoccus sp. ATCC8456
α-olefins produced [1]: 1-pentadecene and heptadecadiene | rate of hydroxyhexadecanoic acid production relative to the rates of the two CYP152A1 enzymes [2]: about 1/50 | specific activity for 1-pentadecene formation ([2]; pH 7.2, room temperature, comparison between enzymes): similar
